The target of assay [1] is T1, Prototype (Wuhan-Hu-1) rS (SARS-CoV-2 (parent virus, Wuhan-Hu-1), UniProt P0DTC2 14-1273).
The target in assay [2] is T1, Prototype (Wuhan-Hu-1) rS. Nature of the assay: ELISA: rS coated, mAb titrated, anti-mouse HRP. On the technique in general: An ELISA detects its analyte on a solid surface through an enzyme-linked reagent.

Some results are limits rather than exact numbers.

B1: NVX.324.6 (antibody, V domains shown)
VH: EVQLQQSGPELGKPGTSMKISCKASGYSFTGYTMNWVKQSHGKNLEWIGLINPYNGGTSYNQKFKDKATLTVDKSSSTAYMELLSLTSEDSAVYYCVREHYYYDSGYGGYYAMDYWGQGTSVTVSS
VL: QIVLSQSPAILSASPGDKVTMTCRASASVNYMYWYQQKPGSSPKPWIYATSNLASGVPARFSGSGSGTSYSLTISRVEAEDAAIYYCQQWSSNPYTFGGGTKLEIK
notes: also called mAb NVX.324.6
With B1, the half-inhibitory concentration (IC50) (as a rule, the concentration needed to halve the response being measured) in assay [1] was greater than 3 µg/mL. For the same molecule, in assay [2], the EC50 (in general, the concentration giving half of the maximal effect) was greater than 5 µg/mL.

B2: NVX.62.12 (antibody, V domains shown)
VH: QVQLQQSGAELVRPGVSVKISCKGSGYTFTDYAMHWVKQSHAKSLEWIGVISTYSGDAYYNQKFKGKATVTVDKSSSTAYMELARLTSEDSAIYFCARNWDDYYAMDYWGQGTSVTVSS
VL: QIILSQSPAILSASPGERVTMTCRATSSVSYMHWYRQKPGSSPQPWIYATSNLASGVPARFSGSGSGTSYSLTISRVEAEDAATYYCQQWSGNPWTFGGGTKLEIK
notes: also called mAb NVX.62.12
As for B2, the IC50 in assay [1] was greater than 3 µg/mL. The EC50 in assay [2] was greater than 5 µg/mL.

Values taken from patent US20250109187A1 (NOVAVAX, published 2025).
